From patent US20260248892A1 (Sanofi, published 2026) come the findings set out here.

Changes are numbered by the printed parent chain.

Holding throughout (test): cell-based or functional assay
The target in one assay is Rat IR (rat, UniProt P15127 27-1383).
In assay [1] the target is human insulin receptor isoform A (human, UniProt P06213-2 28-1370).
The target of another assay is Pig IR (pig, UniProt F1SCL0 28-1382).
The target in assay [2] is human insulin receptor isoform B (human, UniProt P06213 28-1382).

Rat IR, sequence (P15127 27-1383): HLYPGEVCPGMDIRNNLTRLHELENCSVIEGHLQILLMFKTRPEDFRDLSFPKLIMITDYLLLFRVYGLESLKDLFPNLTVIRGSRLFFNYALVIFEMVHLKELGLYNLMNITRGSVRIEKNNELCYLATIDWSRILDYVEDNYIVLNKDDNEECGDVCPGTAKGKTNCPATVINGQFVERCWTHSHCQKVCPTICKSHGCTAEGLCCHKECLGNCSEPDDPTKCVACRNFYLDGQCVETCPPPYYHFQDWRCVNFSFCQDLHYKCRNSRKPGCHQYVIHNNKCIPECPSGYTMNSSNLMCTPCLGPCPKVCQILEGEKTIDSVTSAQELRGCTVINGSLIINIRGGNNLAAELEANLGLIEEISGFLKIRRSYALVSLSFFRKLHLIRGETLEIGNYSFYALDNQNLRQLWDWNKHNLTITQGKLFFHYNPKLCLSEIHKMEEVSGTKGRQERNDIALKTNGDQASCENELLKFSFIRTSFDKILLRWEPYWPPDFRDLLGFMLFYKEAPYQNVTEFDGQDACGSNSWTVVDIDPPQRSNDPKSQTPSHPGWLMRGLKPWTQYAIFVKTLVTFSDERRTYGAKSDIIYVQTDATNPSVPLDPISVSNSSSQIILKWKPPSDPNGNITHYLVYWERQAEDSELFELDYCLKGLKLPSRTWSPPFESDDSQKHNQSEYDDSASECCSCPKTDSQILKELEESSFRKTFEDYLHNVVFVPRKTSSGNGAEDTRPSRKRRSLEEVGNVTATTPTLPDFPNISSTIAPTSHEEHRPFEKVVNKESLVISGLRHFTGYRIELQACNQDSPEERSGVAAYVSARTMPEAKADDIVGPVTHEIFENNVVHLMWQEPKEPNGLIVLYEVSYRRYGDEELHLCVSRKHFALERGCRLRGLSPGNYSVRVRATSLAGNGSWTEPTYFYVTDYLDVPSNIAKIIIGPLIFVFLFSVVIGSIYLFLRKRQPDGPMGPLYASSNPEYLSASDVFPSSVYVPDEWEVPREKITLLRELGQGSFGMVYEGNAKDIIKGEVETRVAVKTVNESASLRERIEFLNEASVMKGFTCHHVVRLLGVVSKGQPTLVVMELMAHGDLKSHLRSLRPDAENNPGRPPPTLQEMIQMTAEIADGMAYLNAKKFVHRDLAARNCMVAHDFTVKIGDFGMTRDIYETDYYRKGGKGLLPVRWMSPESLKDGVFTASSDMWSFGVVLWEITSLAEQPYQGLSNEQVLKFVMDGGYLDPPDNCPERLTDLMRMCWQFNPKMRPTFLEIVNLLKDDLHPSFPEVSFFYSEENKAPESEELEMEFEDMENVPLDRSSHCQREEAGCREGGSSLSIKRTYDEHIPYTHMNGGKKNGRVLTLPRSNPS

B1: scl-Fc fusion protein INS012 (Fc fusion)
chain: FVNQHLCGSHLVEALHLVCGERGFHYTPKTEEYPGDVGIVEQCCTSICSLSQLEDYCGGEAEDLQVGQVELGGGPGAGSLQPEGSLQGGPSVFLFPPKPKDTLMISRTPEVTCVVVDVSHEDPEVKFNWYVDGVEVHNAKTKPREEQYNSTYRVVSVLTVLHQDWLNGKEYKCKVSNKALPAPIEKTISKAKGQPREPQVYTLPPSRDELTKNQVSLTCLVKGFYPSDIAVEWESNGQPENNYKTTPPVLDSDGSFFLYSKLTVDKSRWQQGNVFSCSVMHEALHNHYTQKSLSLSPGGGGGSAESKYGPPCPPCPA
Take B1: the “Rat IR phosphorylation [EC50 nM] mean” value with Rat IR amounted to 124 nM. In assay [1], the “hIR-A phosphorylation [EC50 nM] mean” value amounted to 466 nM. Further, in the assay with Pig IR, the “Pig IR phosphorylation [EC 50 nM] mean” value is 50.6 nM. The “hIR-B-phosphorylation [EC50 nM] mean” value in assay [2] came to 178 nM.

B2: scl-Fc fusion protein INS016 (Fc fusion)
chain: B1 chain with E31G, E32S, D36G, D55N
Regarding B2, the “Rat IR phosphorylation [EC50 nM] mean” value with Rat IR came out at 85.5 nM. Besides, the “hIR-A phosphorylation [EC50 nM] mean” value in assay [1] was found to be 180 nM. The “Pig IR phosphorylation [EC 50 nM] mean” value with Pig IR is 41.5 nM. Besides, the “hIR-B-phosphorylation [EC50 nM] mean” value in assay [2] was determined as 58.8 nM.

B3: scl-Fc fusion protein INS020 (Fc fusion)
chain: B1 chain with H16E, D55N
Turning to B3, the “Rat IR phosphorylation [EC50 nM] mean” value with Rat IR came to 247 nM. The “hIR-A phosphorylation [EC50 nM] mean” value in assay [1] amounted to 718 nM. The “Pig IR phosphorylation [EC 50 nM] mean” value in the assay with Pig IR stood at 157 nM. Also, the “hIR-B-phosphorylation [EC50 nM] mean” value in assay [2] amounted to 185 nM.

B4: scl-Fc fusion protein INS013 (Fc fusion)
chain: B1 chain with E31G, E32S, D36G
Take B4: the “Rat IR phosphorylation [EC50 nM] mean” value in the assay with Rat IR was found to be 23.6 nM. The “hIR-A phosphorylation [EC50 nM] mean” value in assay [1] is 5.58 nM. In the assay with Pig IR, the “Pig IR phosphorylation [EC 50 nM] mean” value was 4.17 nM. For the same molecule, the “hIR-B-phosphorylation [EC50 nM] mean” value in assay [2] was determined as 57.2 nM.

B5: scl-Fc fusion protein INS018 (Fc fusion)
chain: B1 chain with H16E, E31G, E32S, D36G
On to B5, for which the “Rat IR phosphorylation [EC50 nM] mean” value with Rat IR worked out at 233 nM. The “hIR-A phosphorylation [EC50 nM] mean” value in assay [1] is 536 nM. Besides, the “Pig IR phosphorylation [EC 50 nM] mean” value with Pig IR was 60 nM. Besides, the “hIR-B-phosphorylation [EC50 nM] mean” value in assay [2] is 260 nM.

B6: scl-Fc fusion protein INS005 (Fc fusion)
chain: SFVNQHLCGSHLVEALHLVCGERGFAYTDKTEEYPGDVGIVEQCCTSICSLEQLENYCGGEAEDLQVGQVELGGGPGAGSLQPEGSLQGGPSVFLFPPKPKDTLMISRTPEVTCVVVDVSHEDPEVKFNWYVDGVEVHNAKTKPREEQYNSTYRVVSVLTVLHQDWLNGKEYKCKVSNKALPAPIEKTISKAKGQPREPQVYTLPPSRDELTKNQVSLTCLVKGFYPSDIAVEWESNGQPENNYKTTPPVLDSDGSFFLYSKLTVDKSRWQQGNVFSCSVMHEALHNHYTQKSLSLSPGGGGGSAESKYGPPCPPCPA
Take B6: the “Rat IR phosphorylation [EC50 nM] mean” value with Rat IR is 1570 nM. Also, the “hIR-A phosphorylation [EC50 nM] mean” value in assay [1] was determined as 1510 nM. In addition, the “Pig IR phosphorylation [EC 50 nM] mean” value with Pig IR worked out at 61.4 nM. Besides, the “hIR-B-phosphorylation [EC50 nM] mean” value in assay [2] was 522 nM.

B7: scl-Fc fusion protein INS009 (Fc fusion)
chain: B6 chain with H17E, A26H, D29P, E32G, E33S, D37G
B7: in the assay with Rat IR, the “Rat IR phosphorylation [EC50 nM] mean” value worked out at 137 nM. The “hIR-A phosphorylation [EC50 nM] mean” value in assay [1] was found to be 332 nM. Besides, in the assay with Pig IR, the “Pig IR phosphorylation [EC 50 nM] mean” value worked out at 36.6 nM. For the same molecule, the “hIR-B-phosphorylation [EC50 nM] mean” value in assay [2] stood at 94.1 nM.

B8: scl-Fc fusion protein INS011 (Fc fusion)
chain: B6 chain with D29P, E32G, E33S, D37G
In the case of B8, the “Rat IR phosphorylation [EC50 nM] mean” value in the assay with Rat IR turned out to be 169 nM. Moreover, in assay [1], the “hIR-A phosphorylation [EC50 nM] mean” value came to 414 nM. Moreover, in the assay with Pig IR, the “Pig IR phosphorylation [EC 50 nM] mean” value turned out to be 39.6 nM. Also, in assay [2], the “hIR-B-phosphorylation [EC50 nM] mean” value was found to be 110 nM.

B9: scl-Fc fusion protein INS017 (Fc fusion)
chain: B6 chain with A26H, D29P, E32G, E33S, D37G, E52S
Consider B9, for which, in the assay with Rat IR, the “Rat IR phosphorylation [EC50 nM] mean” value amounted to 53.6 nM. In addition, in assay [1], the “hIR-A phosphorylation [EC50 nM] mean” value turned out to be 70.6 nM. The “Pig IR phosphorylation [EC 50 nM] mean” value with Pig IR worked out at 26.3 nM. In assay [2], the “hIR-B-phosphorylation [EC50 nM] mean” value is 36 nM.

B10: scl-Fc fusion protein INS008 (Fc fusion)
chain: B6 chain with H17E, A26H, E32G, E33S, D37G
B10: the “Rat IR phosphorylation [EC50 nM] mean” value with Rat IR came out at 440 nM. The “hIR-A phosphorylation [EC50 nM] mean” value in assay [1] came to 1410 nM. Further, the “Pig IR phosphorylation [EC 50 nM] mean” value in the assay with Pig IR was determined as 21.2 nM. Besides, in assay [2], the “hIR-B-phosphorylation [EC50 nM] mean” value is 90 nM.

B11: scl-Fc fusion protein INS019 (Fc fusion)
chain: B6 chain with H17E, A26H, D29P, E32G, E33S, D37G, E52S, N56D
Consider B11, for which, in the assay with Rat IR, the “Rat IR phosphorylation [EC50 nM] mean” value stood at 2200 nM. The “hIR-A phosphorylation [EC50 nM] mean” value in assay [1] worked out at 666 nM. In the assay with Pig IR, the “Pig IR phosphorylation [EC 50 nM] mean” value is 43 nM. The “hIR-B-phosphorylation [EC50 nM] mean” value in assay [2] stood at 292 nM.

B12: scl-Fc fusion protein INS015 (Fc fusion)
chain: B6 chain with A26H, D29P, E52S
Consider B12, for which the “Rat IR phosphorylation [EC50 nM] mean” value with Rat IR was 95.7 nM. The “hIR-A phosphorylation [EC50 nM] mean” value in assay [1] was determined as 211 nM. Besides, the “Pig IR phosphorylation [EC 50 nM] mean” value with Pig IR came to 33.5 nM. Also, in assay [2], the “hIR-B-phosphorylation [EC50 nM] mean” value was 56.3 nM.

B13: scl-Fc fusion protein INS014 (Fc fusion)
chain: B6 chain with A26H, D29P, E32G, E33S, D37G, E52S, N56D
For the molecule B13, the “Rat IR phosphorylation [EC50 nM] mean” value with Rat IR was 92.8 nM. The “hIR-A phosphorylation [EC50 nM] mean” value in assay [1] amounted to 300 nM. Besides, the “Pig IR phosphorylation [EC 50 nM] mean” value with Pig IR was 28.4 nM. Further, in assay [2], the “hIR-B-phosphorylation [EC50 nM] mean” value was determined as 47.9 nM.

B14: scl-Fc fusion protein INS010 (Fc fusion)
chain: B6 chain with D29P
Regarding B14, in the assay with Rat IR, the “Rat IR phosphorylation [EC50 nM] mean” value is 390 nM. The “hIR-A phosphorylation [EC50 nM] mean” value in assay [1] is 1780 nM. In addition, in the assay with Pig IR, the “Pig IR phosphorylation [EC 50 nM] mean” value came to 23.5 nM. The “hIR-B-phosphorylation [EC50 nM] mean” value in assay [2] is 501 nM.

B15: scl-Fc fusion protein INS006 (Fc fusion)
chain: B6 chain with H17E, A26H
In the case of B15, the “Rat IR phosphorylation [EC50 nM] mean” value with Rat IR worked out at 286 nM. For the same molecule, in assay [1], the “hIR-A phosphorylation [EC50 nM] mean” value is 1110 nM. The “Pig IR phosphorylation [EC 50 nM] mean” value with Pig IR came out at 52.5 nM. In addition, the “hIR-B-phosphorylation [EC50 nM] mean” value in assay [2] was determined as 388 nM.

B16: scl-Fc fusion protein INS007 (Fc fusion)
chain: B6 chain with E32G, E33S, D37G
On to B16, for which, in the assay with Rat IR, the “Rat IR phosphorylation [EC50 nM] mean” value came to 54.8 nM. Also, the “hIR-A phosphorylation [EC50 nM] mean” value in assay [1] came to 82.5 nM. Moreover, the “Pig IR phosphorylation [EC 50 nM] mean” value with Pig IR came to 10.8 nM. Besides, the “hIR-B-phosphorylation [EC50 nM] mean” value in assay [2] was found to be 57.3 nM.

B17: scl-Fc fusion protein INS002 (Fc fusion)
chain: FVNQHLCGSHLVEALYLVCGERGFFYTDKTEEYPGDVGIVEQCCTSICSLEQLENYCGGEAEDLQVGQVELGGGPGAGSLQPLALEGSLQGGPSVFLFPPKPKDTLMISRTPEVTCVVVDVSHEDPEVKFNWYVDGVEVHNAKTKPREEQYNSTYRVVSVLTVLHQDWLNGKEYKCKVSNKALPAPIEKTISKAKGQPREPQVYTLPPSRDELTKNQVSLTCLVKGFYPSDIAVEWESNGQPENNYKTTPPVLDSDGSFFLYSKLTVDKSRWQQGNVFSCSVMHEALHNHYTQKSLSLSPGGGGGSAESKYGPPCPPCPA
B17: in the assay with Rat IR, the “Rat IR phosphorylation [EC50 nM] mean” value is 32.1 nM. For the same molecule, the “hIR-A phosphorylation [EC50 nM] mean” value in assay [1] turned out to be 36 nM. In the assay with Pig IR, the “Pig IR phosphorylation [EC 50 nM] mean” value is 8.12 nM. Besides, the “hIR-B-phosphorylation [EC50 nM] mean” value in assay [2] amounted to 22.8 nM.
